Measurements reported in patent US20240245796A1 (PROFOUNDBIO US, published 2024).

What was measured:
[1] = target: T1, human FOLR3 extracellular domain linked to His tag (human, UniProt P41439 23-245, limits assumed); experiment: BLI, global 1:1 fit (250 nM row); all responses below quantification
T1 construct: extracellular domain; Antigen in solution in BLI; also called Hu-FRg; not shown: His tag

[2] = target: T2, cynomolgus monkey FOLR1 extracellular domain linked to His tag (cynomolgus monkey, UniProt A0A2K5U044 25-233); experiment: BLI, Ag 7.82 nM over Ab on anti-hIgG Fc tip
T2 construct: extracellular domain; Antigen in solution in BLI; It may be the same product as m14; also called Cyno-Ag; not shown: His tag
T2 sequence (A0A2K5U044 entry or part of it): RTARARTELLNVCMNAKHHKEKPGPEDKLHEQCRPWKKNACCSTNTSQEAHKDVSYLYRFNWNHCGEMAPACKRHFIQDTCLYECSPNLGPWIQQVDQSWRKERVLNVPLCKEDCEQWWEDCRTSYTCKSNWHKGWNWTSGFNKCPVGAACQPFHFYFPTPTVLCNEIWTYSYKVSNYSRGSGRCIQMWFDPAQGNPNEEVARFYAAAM

[3] = target: T3, human FOLR1 extracellular domain linked to His tag (human, UniProt P15328 25-233, limits assumed); experiment: BLI, Ag 7.82 nM over Ab on anti-hIgG Fc tip
T3 construct: extracellular domain; It may be the same product as m13; also called Hu-FRα; Hu-Ag; not shown: His tag
T3 sequence (P15328 25-233 limits assumed): as the sequence (A0A2K5U044 entry or part of it) above, with T2I, R4W, K37R, P146A, Y171H counted along it

[4] = target: T4, mouse FOLR1 extracellular domain linked to His tag (mouse, UniProt P35846 25-232, limits assumed); experiment: BLI, global 1:1 fit (7.82 nM row); only the 500 nM response quantifiable
T4 construct: extracellular domain; Antigen in solution in BLI; also called Mouse-Ag; not shown: His tag
T4 sequence (P35846 25-232 limits assumed): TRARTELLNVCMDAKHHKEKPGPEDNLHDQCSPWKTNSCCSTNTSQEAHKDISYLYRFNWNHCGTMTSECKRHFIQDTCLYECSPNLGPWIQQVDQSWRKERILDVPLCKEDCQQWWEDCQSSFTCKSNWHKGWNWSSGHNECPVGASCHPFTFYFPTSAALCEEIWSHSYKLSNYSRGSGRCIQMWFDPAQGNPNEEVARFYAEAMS

[5] = target: T5, rat FOLR1 extracellular domain linked to His tag (rat); experiment: BLI, Ag 15.6 nM; * = below range of quantification
T5 construct: extracellular domain; Antigen in solution in BLI; also called Rat-Ag

[6] = target: T1, human FOLR3 extracellular domain linked …; experiment: BLI, global 1:1 fit (7.82 nM row); all responses below quantification
[7] = target: T1, human FOLR3 extracellular domain linked …; experiment: BLI, global 1:1 fit (15.6 nM row); all responses below quantification
[8] = target: T3, human FOLR1 extracellular domain linked …; experiment: BLI, global 1:1 fit (500 nM row)
[9] = target: T2, cynomolgus monkey FOLR1 extracellular …; experiment: BLI, global 1:1 fit (31.3 nM row)
[10] = target: T3, human FOLR1 extracellular domain linked …; experiment: BLI, global 1:1 fit (31.3 nM row)
[11] = target: T1, human FOLR3 extracellular domain linked …; experiment: BLI, Ag 7.82 nM; * = below range of quantification
[12] = target: T6, human FOLR2 extracellular domain linked to His tag (human, UniProt P14207 17-230, limits assumed); experiment: BLI, Ag 7.82 nM; * = below range of quantification
T6 construct: extracellular domain; Antigen in solution in BLI; also called Hu-FRb; not shown: His tag
T6 sequence (P14207 17-230 limits assumed): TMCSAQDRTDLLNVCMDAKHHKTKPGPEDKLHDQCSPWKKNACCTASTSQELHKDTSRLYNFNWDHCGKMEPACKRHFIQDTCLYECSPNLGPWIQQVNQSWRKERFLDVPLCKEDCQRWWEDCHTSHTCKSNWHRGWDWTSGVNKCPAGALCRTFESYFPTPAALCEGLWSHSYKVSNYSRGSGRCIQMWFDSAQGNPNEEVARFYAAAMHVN

[13] = target: T1, human FOLR3 extracellular domain linked …; experiment: BLI, global 1:1 fit (62.5 nM row); all responses below quantification
[14] = target: T2, cynomolgus monkey FOLR1 extracellular …; experiment: BLI, Ag 31.3 nM over Ab on anti-hIgG Fc tip
[15] = target: T3, human FOLR1 extracellular domain linked …; experiment: BLI, Ag 31.3 nM over Ab on anti-hIgG Fc tip
[16] = target: T1, human FOLR3 extracellular domain linked …; experiment: BLI, global 1:1 fit (125 nM row); all responses below quantification
[17] = target: T4, mouse FOLR1 extracellular domain linked …; experiment: BLI, global 1:1 fit (125 nM row); only the 500 nM response quantifiable
[18] = target: T4, mouse FOLR1 extracellular domain linked …; experiment: BLI, global 1:1 fit (62.5 nM row); only the 500 nM response quantifiable
[19] = target: T2, cynomolgus monkey FOLR1 extracellular …; experiment: BLI, Ag 500 nM over Ab on anti-hIgG Fc tip
[20] = target: T3, human FOLR1 extracellular domain linked …; experiment: BLI, Ag 500 nM over Ab on anti-hIgG Fc tip
[21] = target: T4, mouse FOLR1 extracellular domain linked …; experiment: BLI, Ag 500 nM over Ab on anti-hIgG Fc tip
[22] = target: T5, rat FOLR1 extracellular domain linked …; experiment: BLI, global 1:1 fit (31.3 nM row); all responses below quantification
[23] = target: T5, rat FOLR1 extracellular domain linked …; experiment: BLI, global 1:1 fit (7.82 nM row); all responses below quantification
[24] = target: T5, rat FOLR1 extracellular domain linked …; experiment: BLI, Ag 125 nM; * = below range of quantification

T1 sequence (P41439 23-245 limits assumed): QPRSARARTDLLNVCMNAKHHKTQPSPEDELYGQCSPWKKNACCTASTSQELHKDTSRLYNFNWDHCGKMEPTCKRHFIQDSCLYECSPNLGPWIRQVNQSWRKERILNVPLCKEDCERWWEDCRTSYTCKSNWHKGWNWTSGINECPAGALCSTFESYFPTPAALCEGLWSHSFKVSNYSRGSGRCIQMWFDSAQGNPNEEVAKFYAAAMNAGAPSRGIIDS

B1: F131 (antibody, V domains shown)
VH: EVQLLESGGGVVQPGRSLRLSCAASGFTFSSYGMHWVRQAPGKGLEWVAVISYDGSNKYYADSVKGRFTISRANSKNTLYLQMNSLRAEDTAVYYCARPRAYYGAYGSSFDYWGQGTQVTVSS
VL: EIVMTQSPSSVSASVGDRVAITCRASQGISSWLAWYQQKPGKAPKLLIYAASSLQSGVPSRFSGSGSGTDFTLTISSLQPEDFATYYCQQSYSTPLTFGGGTKVDIK
notes: also called clone F131; F131 mAb
In the case of B1, the koff [1] is reported as 0.217 s⁻¹, the kon [1] is reported as 1660 M⁻¹ s⁻¹ and the Response [2] is reported as 0.0537. For the same binder, the Response [3] was 0.04, the Kd [4] was 2960 nM and the koff [4] was 0.301 s⁻¹. It also gave a kon [4] of 102000 M⁻¹ s⁻¹, a Response [5] of -0.00395 and a koff [6] of 0.217 s⁻¹. It also gave a kon [6] of 1660 M⁻¹ s⁻¹, a koff [7] of 0.217 s⁻¹ and a kon [7] of 1660 M⁻¹ s⁻¹. It also gave a koff [8] of 0.0012 s⁻¹, a kon [8] of 226000 M⁻¹ s⁻¹ and a Kd [9] of 8.15 nM. The koff [9] was 0.00157 s⁻¹, the kon [9] was 193000 M⁻¹ s⁻¹ and the Kd [10] was 1.53 nM. It also gave a koff [10] of 0.000338 s⁻¹, a kon [10] of 221000 M⁻¹ s⁻¹ and a Response [11] of 0.00103. For the same binder, the Response [12] was 0.0011, the koff [13] was 0.217 s⁻¹ and the kon [13] was 1660 M⁻¹ s⁻¹. It also gave a Response [14] of 0.084, a Response [15] of 0.0869 and a koff [16] of 0.217 s⁻¹. It also gave a kon [16] of 1660 M⁻¹ s⁻¹, a Kd [17] of 2960 nM and a koff [17] of 0.301 s⁻¹. It also gave a kon [17] of 102000 M⁻¹ s⁻¹, a Kd [18] of 2960 nM and a koff [18] of 0.301 s⁻¹. It also gave a kon [18] of 102000 M⁻¹ s⁻¹, a Response [19] of 0.219 and a Response [20] of 0.181. It also gave a Response [21] of 0.0167, a koff [22] of 1.03 s⁻¹ and a kon [22] of 5490 M⁻¹ s⁻¹. For the same binder, the koff [23] was 1.03 s⁻¹, the kon [23] was 5490 M⁻¹ s⁻¹ and the Response [24] was -0.00477.

B2: F131-LD038 (antibody, V domains shown)
VH: B1 VH
VL: B1 VL
modifications: drug-linker LD038 (PB038, maleimide-PEG unit-Val-Cit-PAB-exatecan) on cysteines freed by TCEP reduction; positions not given
notes: Antibody-drug conjugate of F131 (IgG1) with LD038; also called anti-huFOLR-1 conjugate F131-LD038; F131-038
Binder B2 has a koff [1] of 0.233 s⁻¹, a Response [2] of 0.0225 and a Response [3] of 0.0342. The Kd [4] was 2870 nM, the koff [4] was 0.266 s⁻¹ and the kon [4] was 92600 M⁻¹ s⁻¹. For the same binder, the Response [5] was -0.00212, the koff [6] was 0.233 s⁻¹ and the koff [7] was 0.233 s⁻¹. For the same binder, the Kd [8] was 4.79 nM, the koff [8] was 0.00121 s⁻¹ and the kon [8] was 252000 M⁻¹ s⁻¹. For the same binder, the Kd [9] was 8.82 nM, the koff [9] was 0.0016 s⁻¹ and the kon [9] was 181000 M⁻¹ s⁻¹. It also gave a Kd [10] of 4.8 nM, a koff [10] of 0.00107 s⁻¹ and a kon [10] of 224000 M⁻¹ s⁻¹. The Response [11] was 0.0004, the Response [12] was 0.002 and the koff [13] was 0.233 s⁻¹. For the same binder, the Response [14] was 0.0702, the Response [15] was 0.0866 and the koff [16] was 0.233 s⁻¹. The Kd [17] was 2870 nM, the koff [17] was 0.266 s⁻¹ and the kon [17] was 92600 M⁻¹ s⁻¹. It also gave a Kd [18] of 2870 nM, a koff [18] of 0.266 s⁻¹ and a kon [18] of 92600 M⁻¹ s⁻¹. It also gave a Response [19] of 0.186, a Response [20] of 0.205 and a Response [21] of 0.0125. For the same binder, the koff [22] was 0.224 s⁻¹, the kon [22] was 2.64e+06 M⁻¹ s⁻¹ and the koff [23] was 0.224 s⁻¹. For the same binder, the kon [23] was 2.64e+06 M⁻¹ s⁻¹ and the Response [24] was 0.0007.
